# According to the supplement of paper PMC10567573:
# B1: ANKRD9 (parent)
# chain: VGAAGSARQELLGDRPRWQRLLGE
# B2: KLHL14 (parent)
# chain: NETGYLSSVECYNLETNEWRYVSS
# Variants of: B1
# Assay: protein stability index of a GFP-peptide fusion (GPS, HEK-293T) (PSI 1-6); higher = more stable
# Settings: c terminus: a fixed tail appended
# 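Also: lentivirally expressed fusions sorted by FACS into six bins by GFP to DsRed ratio, PSI derived from sequencing read proportions per bin multiplied by bin number.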
row,Variant,protein stability index
1,L21E,4.67
2,G23T,2.98
3,R17M,2.72
4,E24C,2.1
5,L11S,4.02
6,P16W,1.84
7,L11P,3.86
8,V1D,4.49
9,R17Q,3.47
10,L21Q,3.32
11,L21Y,2.28
12,L12W,2.35
13,L12R,2.12
14,W18Q,4.1
15,E24H,2.96

# Variants of: B2
# Assay: as above
# Settings: c terminus: a fixed tail appended
row,Variant,protein stability index
1,N1A,3.05
2,N1C,2.41
3,N1D,3.23
4,N1E,3.95
5,N1F,2.63
6,N1G,2.71
7,N1H,3.44
8,N1I,2.43
9,N1K,3.55
10,N1L,3.04
11,N1M,2.18
12,N1P,3.49
13,N1Q,3.31
14,N1R,2.55
15,N1S,3.69
16,N1T,2.83
17,N1V,3.3
18,N1W,1.71
19,N1Y,2.79
20,E2A,2.68
21,E2C,2.7
22,E2D,3.52
23,E2F,1.72
24,E2G,2.43
25,E2H,2.02

row,Variant,protein stability index
1,E2I,2.37
2,E2K,2.69
3,E2L,2.09
4,E2M,2.55
5,E2N,2.78
6,E2P,2.72
7,E2Q,2.35
8,E2R,2.49
9,E2S,2.78
10,E2T,2.67
11,E2V,2.51
12,E2W,3.64
13,E2Y,1.88
14,T3A,3.3
15,T3C,2.8
16,T3D,4.12
17,T3E,3.53
18,T3F,2.45
19,T3G,3.01
20,T3H,3.12
21,T3I,3.4
22,T3K,2.67
23,T3L,3.08
24,T3M,2.78
25,T3N,3.78

row,Variant,protein stability index
1,T3P,3.85
2,T3Q,3.4
3,T3R,2.96
4,T3S,3.4
5,T3V,2.92
6,T3W,2.53
7,T3Y,3.21
8,G4A,3.75
9,G4C,1.98
10,G4D,4
11,G4E,3.56
12,G4F,2.39
13,G4H,3.17
14,G4I,2.34
15,G4K,3.56
16,G4L,2.67
17,G4M,2.77
18,G4N,3.82
19,G4P,3.92
20,G4Q,3.77
21,G4R,2.64
22,G4S,3.22
23,G4T,2.8
24,G4V,2.58
25,G4W,1.68

row,Variant,protein stability index
1,G4Y,2.46
2,Y5A,4.24
3,Y5C,3.9
4,Y5D,4.57
5,Y5E,4.24
6,Y5F,3.71
7,Y5G,4.01
8,Y5H,4.18
9,Y5I,4
10,Y5K,3.41
11,Y5L,3.46
12,Y5M,3.64
13,Y5N,4.2
14,Y5P,4
15,Y5Q,4.24
16,Y5R,3.2
17,Y5S,4.16
18,Y5T,4.72
19,Y5V,3.8
20,Y5W,2.52
21,L6A,3.63
22,L6C,3.21
23,L6D,3.78
24,L6E,4.29
25,L6F,2.87

row,Variant,protein stability index
1,L6G,3.62
2,L6H,4.23
3,L6I,3.24
4,L6K,3.89
5,L6M,3.45
6,L6N,3.08
7,L6P,4.19
8,L6Q,3.69
9,L6R,3.82
10,L6S,3.63
11,L6T,3.97
12,L6V,3.39
13,L6W,4.46
14,L6Y,2.86
15,S7A,3.42
16,S7C,2.52
17,S7D,3.89
18,S7E,4.08
19,S7F,1.64
20,S7G,3.47
21,S7H,2.8
22,S7I,2.46
23,S7K,2.96
24,S7L,2.24
25,S7M,2.48

row,Variant,protein stability index
1,S7N,3.89
2,S7P,3.88
3,S7Q,3.86
4,S7R,3.64
5,S7T,3.45
6,S7V,2.45
7,S7W,2.11
8,S7Y,2.26
9,S8A,3.34
10,S8C,2.55
11,S8D,4.02
12,S8E,4.43
13,S8F,2.1
14,S8G,3.76
15,S8H,2.17
16,S8I,2.29
17,S8K,2.85
18,S8L,2.77
19,S8M,2.73
20,S8N,4.16
21,S8P,4.21
22,S8Q,3.29
23,S8R,2.35
24,S8T,3.27
25,S8V,2.77

row,Variant,protein stability index
1,S8Y,1.67
2,V9A,4.07
3,V9C,3.35
4,V9D,4.39
5,V9E,4
6,V9F,2.67
7,V9G,3.88
8,V9H,3.88
9,V9I,3.16
10,V9K,2.96
11,V9L,3.12
12,V9M,3.62
13,V9N,4.11
14,V9P,3.84
15,V9Q,3.85
16,V9R,3.41
17,V9S,3.87
18,V9T,3.4
19,V9W,2.43
20,V9Y,3.14
21,E10A,2.72
22,E10C,2.46
23,E10D,3.18
24,E10F,1.64
25,E10G,2.72

row,Variant,protein stability index
1,E10H,2.22
2,E10I,1.69
3,E10K,3.05
4,E10L,1.45
5,E10M,1.86
6,E10N,2.48
7,E10P,2.83
8,E10Q,3.42
9,E10R,3.23
10,E10S,1.94
11,E10T,2.98
12,E10V,1.71
13,E10W,1.75
14,E10Y,1.58
15,C11D,4.58
16,C11E,3.8
17,C11F,2.83
18,C11G,3.91
19,C11H,4.09
20,C11I,2.55
21,C11K,3.58
22,C11L,2.97
23,C11M,3.23
24,C11N,4.18
25,C11P,3.92

row,Variant,protein stability index
1,C11Q,4.11
2,C11R,3.73
3,C11S,3.77
4,C11T,3.6
5,C11V,2.76
6,C11W,4.03
7,C11Y,3.06
8,Y12A,3.94
9,Y12C,3.36
10,Y12D,4.55
11,Y12E,4.24
12,Y12F,3.69
13,Y12G,3.76
14,Y12H,3.81
15,Y12I,2.95
16,Y12K,3.97
17,Y12L,3.67
18,Y12M,3.5
19,Y12N,3.78
20,Y12P,4.05
21,Y12Q,3.84
22,Y12R,3.72
23,Y12S,4
24,Y12T,3.89
25,Y12V,4.09

row,Variant,protein stability index
1,Y12W,3.1
2,N13A,2.99
3,N13C,2.06
4,N13D,3.83
5,N13E,2.79
6,N13F,1.64
7,N13G,2.67
8,N13H,2.73
9,N13I,1.52
10,N13K,2.56
11,N13L,1.8
12,N13M,2.21
13,N13P,3.48
14,N13Q,2.8
15,N13R,2.81
16,N13S,2.69
17,N13T,3.24
18,N13V,1.47
19,N13W,1.71
20,N13Y,2.63
21,L14A,3.96
22,L14C,3.2
23,L14D,4.15
24,L14E,4.6
25,L14F,3.38

row,Variant,protein stability index
1,L14G,3.49
2,L14H,3.74
3,L14I,3.35
4,L14K,3.99
5,L14M,3.46
6,L14N,4.24
7,L14P,4.16
8,L14Q,3.88
9,L14R,3.73
10,L14S,4.68
11,L14T,3.62
12,L14V,3.41
13,L14W,3.11
14,L14Y,2.95
15,E15A,1.94
16,E15C,2.34
17,E15D,3.41
18,E15F,1.8
19,E15G,3.18
20,E15H,2.42
21,E15I,1.84
22,E15K,3.66
23,E15L,2.61
24,E15M,2.63
25,E15N,3.03

row,Variant,protein stability index
1,E15P,2.54
2,E15Q,2.58
3,E15R,2.39
4,E15S,2.08
5,E15T,2.02
6,E15V,2.25
7,E15W,2.13
8,E15Y,2.15
9,T16C,3.58
10,T16D,4.07
11,T16E,3.83
12,T16F,2.71
13,T16G,3.83
14,T16H,3.26
15,T16I,2.48
16,T16K,2.96
17,T16L,2.63
18,T16M,2.66
19,T16N,3.52
20,T16P,2.89
21,T16Q,4.16
22,T16R,3.17
23,T16S,3.8
24,T16V,3
25,T16W,2.05

row,Variant,protein stability index
1,T16Y,2.8
2,N17A,2.92
3,N17C,2.84
4,N17D,4.02
5,N17E,4.2
6,N17F,2.9
7,N17G,3.67
8,N17H,3.31
9,N17I,2.31
10,N17K,3.72
11,N17L,3.66
12,N17M,3.19
13,N17P,3.42
14,N17Q,4.06
15,N17R,3.01
16,N17S,4.14
17,N17T,3.01
18,N17V,3.06
19,N17W,2.25
